In assay [1] the target is T1, light-activated and phosphorylated rhodopsin in rod outer segment membranes (P-ROS*) (UniProt P02699 1-348, phosphorylated by endogenous GRK1: mixture of species with up to seven phosphate groups per molecule, sites not stated).
T1 construct: rhodopsin, endogenous in native rod outer segment (ROS) disc membranes (isolated membranes, not whole cells); also called ROS-P*; source: rod outer segment disc membranes isolated from native source; phosphorylated by endogenously available GRK1; illuminated
Nature of the assay: pull-down; 1.5 µg purified arrestin-1-mCherry and 15 µg (rhod-)opsin in native ROS membranes, 50 µl, 100 mM Hepes pH 7.0, 100 mM NaCl, 1 mM DTT, 0.1 mM EDTA; P-ROS* and ROS* illuminated 2.5 min (495 nm long-pass), others kept dark; centrifuged at 4 °C, pellet washed, mCherry fluorescence. Conditions: one partner purified.

Assay [2] concerns the target T1, light-activated and phosphorylated …. The assay can be described thus: pull-down; cleared bacterial lysate with arrestin-mCherry mixed with ROS-P* membranes; 10 mM Hepes pH 7.0, 1 mM DTT, 1 mM MgCl2, 0.1 mM EDTA, NaCl from 100 mM to 3.949 M; 37 °C, 5 min incubation, light activated 6 min; membranes pelleted, washed, mCherry fluorescence of the pellet; IC50 of NaCl for complex formation. Particulars: partners not purified.

The target is the same in assay [3]. The description is as above. Particulars: partners not purified. The source holds these as a separate data set.

T1 sequence (P02699 whole entry): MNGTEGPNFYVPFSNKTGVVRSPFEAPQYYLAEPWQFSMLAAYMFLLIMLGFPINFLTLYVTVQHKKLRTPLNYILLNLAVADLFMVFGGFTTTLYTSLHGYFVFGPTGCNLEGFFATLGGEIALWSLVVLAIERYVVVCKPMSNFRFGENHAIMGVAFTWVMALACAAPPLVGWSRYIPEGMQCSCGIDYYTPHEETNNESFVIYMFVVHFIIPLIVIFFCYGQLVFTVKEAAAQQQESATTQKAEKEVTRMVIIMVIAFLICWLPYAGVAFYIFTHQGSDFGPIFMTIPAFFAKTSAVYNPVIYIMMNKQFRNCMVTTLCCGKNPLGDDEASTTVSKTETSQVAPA

B1: arrestin-1-mCherry-Strep-tag double mutant T304A + F375A, HEK293-expressed and purified (natural protein, bovine, UniProt P08168 1-404, looked up)
chain: MKANKPAPNHVIFKKISRDKSVTIYLGKRDYIDHVERVEPVDGVVLVDPELVKGKRVYVSLTCAFRYGQEDIDVMGLSFRRDLYFSQVQVFPPVGASGATTRLQESLIKKLGANTYPFLLTFPDYLPCSVMLQPAPQDVGKSCGVDFEIKAFATHSTDVEEDKIPKKSSVRLLIRKVQHAPRDMGPQPRAEASWQFFMSDKPLRLAVSLSKEIYYHGEPIPVTVAVTNSTEKTVKKIKVLVEQVTNVVLYSSDYYIKTVAAEEAQEKVPPNSSLTKTLTLVPLLANNRERRGIALDGKIKHEDANLASSTIIKEGIDKTVMGILVSYQIKVKLTVSGLLGELTSSEVATEVPFRLMHPQPEDPDTAKESFQDENAVFEEFARQNLKDAGEYKEEKTDQEAAMDE
notes: arrestin-1 (visual arrestin), bovine, UniProt P08168; also called T304A + F375A double mutant; source: HEK293, transiently transfected (pcDNA3.1), one-step purified (Strep-Tactin); not shown: mCherry, C-terminal, kept
With B1, the “activity level relative to WT” value in assay [1] was found to be 106%.

B2: arrestin-1-mCherry double mutant T304A + F375A, bacterial lysate (natural protein, bovine, UniProt P08168 1-404, looked up)
chain: MKANKPAPNHVIFKKISRDKSVTIYLGKRDYIDHVERVEPVDGVVLVDPELVKGKRVYVSLTCAFRYGQEDIDVMGLSFRRDLYFSQVQVFPPVGASGATTRLQESLIKKLGANTYPFLLTFPDYLPCSVMLQPAPQDVGKSCGVDFEIKAFATHSTDVEEDKIPKKSSVRLLIRKVQHAPRDMGPQPRAEASWQFFMSDKPLRLAVSLSKEIYYHGEPIPVTVAVTNSTEKTVKKIKVLVEQVTNVVLYSSDYYIKTVAAEEAQEKVPPNSSLTKTLTLVPLLANNRERRGIALDGKIKHEDANLASSTIIKEGIDKTVMGILVSYQIKVKLTVSGLLGELTSSEVATEVPFRLMHPQPEDPDTAKESFQDENAVFEEFARQNLKDAGEYKEEKTDQEAAMDE
notes: arrestin-1 (visual arrestin), bovine, UniProt P08168; not shown: mCherry, C-terminal, kept
Take B2: in assay [2], the “IC50 of NaCl for complex formation” value worked out at 1.51 M. The “IC50 of NaCl relative to WT” value in assay [3] turned out to be 502%.
